T1: 结核分枝杆菌特异性重组蛋白EspC (Mycobacterium tuberculosis, UniProt P9WJD7 1-103)
T1 sequence (looked up): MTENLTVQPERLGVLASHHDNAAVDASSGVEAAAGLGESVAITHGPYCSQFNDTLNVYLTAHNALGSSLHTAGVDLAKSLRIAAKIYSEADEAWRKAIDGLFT

T2: 结核分枝杆菌特异性重组蛋白CFP10 (Mycobacterium tuberculosis, UniProt P9WNK5 1-100)
T2 sequence (looked up): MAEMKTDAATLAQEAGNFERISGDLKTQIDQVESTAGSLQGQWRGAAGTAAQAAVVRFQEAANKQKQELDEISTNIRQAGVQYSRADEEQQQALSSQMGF

T3: 结核分枝杆菌特异性重组蛋白38KD (Mycobacterium tuberculosis, UniProt P9WGU1 24-374)
T3 sequence (looked up): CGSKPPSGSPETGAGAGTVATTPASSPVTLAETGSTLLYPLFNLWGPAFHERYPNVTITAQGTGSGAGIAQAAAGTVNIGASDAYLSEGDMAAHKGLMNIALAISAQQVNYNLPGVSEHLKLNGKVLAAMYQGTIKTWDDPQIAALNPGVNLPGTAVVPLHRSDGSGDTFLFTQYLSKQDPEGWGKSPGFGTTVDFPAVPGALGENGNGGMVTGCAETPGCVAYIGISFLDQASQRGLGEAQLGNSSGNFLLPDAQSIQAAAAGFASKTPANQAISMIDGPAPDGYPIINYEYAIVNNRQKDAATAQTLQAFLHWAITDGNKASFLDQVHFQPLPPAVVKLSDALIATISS

T4: 结核分枝杆菌特异性重组蛋白MPT32 (Mycobacterium tuberculosis, UniProt P9WIR7 40-325)
T4 sequence (looked up): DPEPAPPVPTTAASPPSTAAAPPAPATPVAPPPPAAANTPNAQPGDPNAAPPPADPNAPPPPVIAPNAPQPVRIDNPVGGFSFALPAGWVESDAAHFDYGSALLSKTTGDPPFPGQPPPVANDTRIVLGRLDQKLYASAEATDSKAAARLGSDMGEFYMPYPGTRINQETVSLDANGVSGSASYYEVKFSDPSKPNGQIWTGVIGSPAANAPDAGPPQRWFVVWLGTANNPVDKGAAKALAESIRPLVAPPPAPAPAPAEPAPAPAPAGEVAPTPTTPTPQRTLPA

T5: 结核分枝杆菌特异性重组蛋白MPT64 (Mycobacterium tuberculosis, UniProt P9WIN9 24-228)
T5 sequence (looked up): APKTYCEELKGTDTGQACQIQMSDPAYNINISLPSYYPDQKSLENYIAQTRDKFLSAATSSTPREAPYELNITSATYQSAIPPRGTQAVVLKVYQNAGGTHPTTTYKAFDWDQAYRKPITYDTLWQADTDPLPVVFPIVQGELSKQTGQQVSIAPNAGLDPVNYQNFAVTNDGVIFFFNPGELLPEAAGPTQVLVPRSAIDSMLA


Experiments:
Test in all cases: indirect ELISA, recombinant protein coated on the plate
结核分枝杆菌特异性重组蛋白EspC = molecular target: T1, 结核分枝杆菌特异性重组蛋白EspC
结核分枝杆菌特异性重组蛋白CFP10 = molecular target: T2, 结核分枝杆菌特异性重组蛋白CFP10
结核分枝杆菌特异性重组蛋白38KD = molecular target: T3, 结核分枝杆菌特异性重组蛋白38KD
结核分枝杆菌特异性重组蛋白Mtb81 = 结核分枝杆菌特异性重组蛋白Mtb81 (Mycobacterium tuberculosis, UniProt P9WK17 1-741)
结核分枝杆菌特异性重组蛋白MPT32 = molecular target: T4, 结核分枝杆菌特异性重组蛋白MPT32
结核分枝杆菌特异性重组蛋白MPT64 = molecular target: T5, 结核分枝杆菌特异性重组蛋白MPT64

Chain of 结核分枝杆菌特异性重组蛋白Mtb81 (P9WK17 whole entry): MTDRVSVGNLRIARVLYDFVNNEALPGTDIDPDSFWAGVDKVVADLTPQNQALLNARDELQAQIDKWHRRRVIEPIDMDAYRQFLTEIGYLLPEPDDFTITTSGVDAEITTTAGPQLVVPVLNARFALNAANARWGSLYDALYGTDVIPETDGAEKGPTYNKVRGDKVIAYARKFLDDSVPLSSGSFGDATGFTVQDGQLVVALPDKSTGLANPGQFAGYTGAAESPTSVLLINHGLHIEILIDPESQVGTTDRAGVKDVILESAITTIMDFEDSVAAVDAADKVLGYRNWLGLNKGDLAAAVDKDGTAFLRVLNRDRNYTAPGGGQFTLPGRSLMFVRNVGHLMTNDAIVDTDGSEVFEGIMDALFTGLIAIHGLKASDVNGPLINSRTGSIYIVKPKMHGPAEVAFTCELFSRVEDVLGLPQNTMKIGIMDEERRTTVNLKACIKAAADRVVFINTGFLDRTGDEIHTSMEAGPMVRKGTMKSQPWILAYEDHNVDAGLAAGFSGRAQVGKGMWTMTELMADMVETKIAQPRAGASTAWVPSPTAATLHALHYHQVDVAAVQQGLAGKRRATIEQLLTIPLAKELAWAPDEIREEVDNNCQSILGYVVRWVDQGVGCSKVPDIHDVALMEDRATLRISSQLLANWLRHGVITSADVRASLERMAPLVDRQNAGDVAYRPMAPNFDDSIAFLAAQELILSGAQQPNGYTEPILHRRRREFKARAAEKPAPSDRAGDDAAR

| Binder | binding result (结核分枝杆菌特异性重组蛋白EspC) | binding result (结核分枝杆菌特异性重组蛋白CFP10) | binding result (结核分枝杆菌特异性重组蛋白38KD) | binding result (结核分枝杆菌特异性重组蛋白Mtb81) | binding result (结核分枝杆菌特异性重组蛋白MPT32) | binding result (结核分枝杆菌特异性重组蛋白MPT64) |
| --- | --- | --- | --- | --- | --- | --- |
| BJRbL20 (antibody, V domains shown, also called 兔抗LAM单克隆抗体BJRbL20; LAM抗体) VH: QSVEESGGRLVTPGGSLTLTCTVSGIDLSSYDMGWVRQAPGKGLEWIGNIWSNGFTDYASWVNGRFTISKSSSTKMDLKMTSLTTEDTATYFCARGSSGYVGDIWGPGTLVTVSS VL: DPVLTQTASSVSAAVGGTVTINCQASQSVYGNNELSWFQQKPGQPPKLLIYYASTLASGVPSRFKGSGSGTQFTLTISDLECDDAAIYYCQGGYLGNRAFGGGTEVVVKG | no binding (tested: protein coated at 5μg/ml) | no binding (tested: protein coated at 5μg/ml) | no binding (tested: protein coated at 5μg/ml) | no binding (tested: protein coated at 5μg/ml) | no binding (tested: protein coated at 5μg/ml) | no binding (tested: protein coated at 5μg/ml) |
| BJRbL52 (antibody, V domains shown, also called 兔抗LAM单克隆抗体BJRbL52; LAM抗体) VH: QSVEESGGRLVTPGTSLTLTCTVSGFSLSSYDMGWVRQAPGKGLEWIGNIWSNGFTDYASWVNGRFTISKSSSTKMDLKMTSLTTEDTATYFCARGSSGYVGDIWGPGTLVTVSS VL: DPVLTQTASSVSAAVGGTVTINCQASQSVYGNNELSWYQQKSGQPPKLLIYKASTLASGVPSRFKASGSGTQFTLTISDLECDDAAIYYCQGGYWGNRAFGGGTEVVVKG | no binding (tested: protein coated at 5μg/ml) | no binding (tested: protein coated at 5μg/ml) | no binding (tested: protein coated at 5μg/ml) | no binding (tested: protein coated at 5μg/ml) | no binding (tested: protein coated at 5μg/ml) | no binding (tested: protein coated at 5μg/ml) |
| BJRbL76 (antibody, V domains shown, also called 兔抗LAM单克隆抗体BJRbL76; LAM抗体) VH: QSVEESGGRLVTPGTPLTLTCTVSGFSLSTYAITWVRQAPGKGLEWIGYIWGGGNTDYASWAKGRFTISKTSTTVDLKITSPTIEDTATYFCGRNDLGYGSDIWGPGTLVTVSS VL: DVVMTQTPSSKSVPVGDTVTINCQASQSVWGNKWLSWYQQKPGQPPKLLIYQASKLASGVPSRFSGSGSGTQFTLTISDVVCDDAATYYCGGHGTGNNDNPLGGGTMVEIKG | no binding (tested: protein coated at 5μg/ml) | no binding (tested: protein coated at 5μg/ml) | no binding (tested: protein coated at 5μg/ml) | no binding (tested: protein coated at 5μg/ml) | no binding (tested: protein coated at 5μg/ml) | no binding (tested: protein coated at 5μg/ml) |

Source: patent CN111234026A (BEIJING CHEST HOSPITAL CAPITAL MEDICAL UNIV; BEIJING …, dated 2020)
